Tests used:
[1] = biological target: T1, human ASIC1a-Flag (human) (UniProt P78348)
T1 sequence: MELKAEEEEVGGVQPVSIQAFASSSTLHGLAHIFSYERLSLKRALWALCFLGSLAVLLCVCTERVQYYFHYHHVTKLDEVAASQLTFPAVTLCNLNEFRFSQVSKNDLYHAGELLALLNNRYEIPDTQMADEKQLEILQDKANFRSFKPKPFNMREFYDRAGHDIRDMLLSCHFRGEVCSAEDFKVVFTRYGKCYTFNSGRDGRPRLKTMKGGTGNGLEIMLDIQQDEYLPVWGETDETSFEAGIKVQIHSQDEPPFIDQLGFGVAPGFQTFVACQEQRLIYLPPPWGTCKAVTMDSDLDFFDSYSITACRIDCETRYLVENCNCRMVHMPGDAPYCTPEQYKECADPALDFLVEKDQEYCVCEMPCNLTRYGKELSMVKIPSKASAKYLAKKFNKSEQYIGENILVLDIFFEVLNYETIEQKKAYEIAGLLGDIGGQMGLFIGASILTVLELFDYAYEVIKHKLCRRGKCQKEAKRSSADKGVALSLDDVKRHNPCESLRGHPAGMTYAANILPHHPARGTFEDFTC

[2] = biological target: T2, hASIC1a comprising amino acids 12–478 with a Strep Tag II in the N-terminus (human, UniProt P78348-2)
[3] = biological target: T3, human ASIC1a-Flag (Homo sapiens, ASIC1a (528 aa isoform), UniProt P78348-2); experiment: immunostaining of cells or tissue; transfected cells on coverslips incubated with Nb (1 nM, 1 hr, on ice) in the medium, washed, fixed, permeabilized; Nb detected by anti-HA, channel by anti-Flag; confocal microscopy; conditions: one partner purified
T3 construct: human acid-sensing ion channel 1a (ASIC1a); this molecule is used for them; also called hASIC1a; hASIC1a-Flag; source: HEK293T / HEK-293 cells, transfected (pcDNA3.1), on cells

[4] = biological target: T2, hASIC1a comprising amino acids 12–478 …; experiment: SPR + immunostaining of cells or tissue; equilibrium constant worked out from the smallest kon of the SPR (purified, immobilised hASIC1a) and the upper limit of koff from the live-cell chase (hASIC1a on HEK293 cells); conditions: one partner purified
[5] = biological target: T2, hASIC1a comprising amino acids 12–478 …; experiment: SEC; purified Nb.C1 added to crude membranes of 293 F cells expressing Strep-tagged hASIC1a (4°C, 3 hr) before solubilisation with 1% DDM; Strep Tactin XT affinity purification, then Superdex 200 Increase; peak run on Coomassie-stained SDS-PAGE; conditions: one partner purified
[6] = biological target: T4, chicken ASIC1-Flag (Gallus gallus, ASIC1, UniProt Q1XA76); experiment: immunostaining of cells or tissue; transfected cells on coverslips incubated with Nb (1 nM, 1 hr, on ice) in the medium, washed, fixed, permeabilized; Nb detected by anti-HA, channel by anti-Flag; confocal microscopy; conditions: one partner purified
T4 construct: chicken acid-sensing ion channel 1 (cASIC1); also called cASIC1; source: transfected cells, on cells

[7] = biological target: T5, mouse ASIC1a-Flag (Mus musculus, ASIC1a, UniProt Q6NXK8-1); experiment: as above; conditions: one partner purified
T5 construct: mouse acid-sensing ion channel 1a (ASIC1a); also called mASIC1a; mASIC1; source: transfected cells, on cells

[8] = biological target: T6, mouse ASIC2a-Flag (Mus musculus, ASIC2a (512 aa isoform), UniProt Q925H0-1); experiment: as above; conditions: one partner purified
T6 construct: mouse acid-sensing ion channel 2a (ASIC2a); also called mASIC2a; source: transfected cells, on cells
T6 sequence (Q925H0 whole entry, canonical isoform): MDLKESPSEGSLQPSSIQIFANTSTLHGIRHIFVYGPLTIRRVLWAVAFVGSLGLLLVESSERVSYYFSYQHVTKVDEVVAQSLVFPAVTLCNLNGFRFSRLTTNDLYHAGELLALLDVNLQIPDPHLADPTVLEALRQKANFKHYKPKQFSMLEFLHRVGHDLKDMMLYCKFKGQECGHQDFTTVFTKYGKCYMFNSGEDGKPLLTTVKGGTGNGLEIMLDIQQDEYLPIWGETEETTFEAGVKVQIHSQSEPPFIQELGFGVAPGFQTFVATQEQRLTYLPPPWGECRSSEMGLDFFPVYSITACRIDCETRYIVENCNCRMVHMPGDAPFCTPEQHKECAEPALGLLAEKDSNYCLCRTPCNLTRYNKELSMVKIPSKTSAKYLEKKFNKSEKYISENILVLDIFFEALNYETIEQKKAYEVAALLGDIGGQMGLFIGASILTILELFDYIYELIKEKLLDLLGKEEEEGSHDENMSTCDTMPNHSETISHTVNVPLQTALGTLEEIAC

[9] = biological target: T7, mouse ASIC3-Flag (Mus musculus, ASIC3, UniProt Q6X1Y6); experiment: as above; conditions: one partner purified
T7 construct: mouse acid-sensing ion channel 3 (ASIC3); also called mASIC3; source: transfected cells, on cells
T7 sequence (Q6X1Y6 whole entry): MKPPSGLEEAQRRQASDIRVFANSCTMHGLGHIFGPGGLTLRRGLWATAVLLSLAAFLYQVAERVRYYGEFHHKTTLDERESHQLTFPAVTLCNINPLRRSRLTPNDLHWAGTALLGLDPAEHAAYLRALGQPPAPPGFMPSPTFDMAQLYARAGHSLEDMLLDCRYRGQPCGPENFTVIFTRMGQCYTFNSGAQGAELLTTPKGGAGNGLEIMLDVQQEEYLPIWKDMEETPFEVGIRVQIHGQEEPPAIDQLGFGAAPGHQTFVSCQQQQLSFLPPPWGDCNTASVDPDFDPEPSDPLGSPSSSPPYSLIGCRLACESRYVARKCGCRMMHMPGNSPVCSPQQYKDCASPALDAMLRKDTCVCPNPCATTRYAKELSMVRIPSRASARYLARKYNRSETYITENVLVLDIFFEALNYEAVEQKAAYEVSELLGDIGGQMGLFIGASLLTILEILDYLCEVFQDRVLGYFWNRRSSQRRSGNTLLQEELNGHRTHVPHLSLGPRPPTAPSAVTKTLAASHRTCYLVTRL

[10] = biological target: T3, human ASIC1a-Flag; experiment: immunostaining of cells or tissue; chase: live HEK293 cells transfected with hASIC1a-Flag incubated with 10 nM Nb.C1-HA for 30 min at 18°C, washed, followed for 0-4 hr with a wash each hour, then fixed; Nb.C1 fluorescence normalised to time 0; koff estimated from the lack of decay; conditions: one partner purified
[11] = biological target: T2, hASIC1a comprising amino acids 12–478 …; experiment: SPR; Biacore S200; hASIC1a amine-coupled to a CM5 chip (diluted in sodium acetate pH 5.0, 0.05% DDM); Nb.C1 injected at 0.41-100 nM, 30 µL/min; association 100 or 300 s, dissociation 300 or 3600 s; two protein preparations; global fits to association time courses; conditions: both partners purified
[12] = biological target: the molecule itself; experiment: cryo-EM structure; hASIC1a-Nb.C1 complex in DDM, pH 7.4, 20 mM HEPES, 150 mM NaCl, 5 mM CaCl2, 3.8 mg/mL; C3 symmetry imposed

For “psalmotoxin-1 (PcTx1) (from UniProt P60514 1-40) (peptide)”, the time constant of recovery of pH 6.0-induced currents after 60 s with 10 nM PcTx1, oocytes expressing hASIC1a (two-electrode voltage clamp) [1] was 220 s.

B1: G4-3 (VHH)
VHH: QVQLVESGGGLVQPGGSLRLSCAASGSTLDYYAIGWFRQAPGKEREGVSCISRSGGSTYYADSVKGRFTISRDNAKNTVYLQMNSLKPEDTAVYYCAADRGAVGGIFNSDYDAQNSLPPCSYGMDYWGKGTLVTVSS
B1: binds [2].

B2: E9-3 (VHH)
VHH: QLQLVESGGDLVQPGGSLRLTCAASGFTFSSLTMSWHRQALGKERELVAAIGEATGATYYVESVKGRFIISRDNAKNTVFLQMNSLKPEDTAVYYCKAASSSNDYWGQGTQVTVSS
B2: binds [2].

B3: 2B-D4 (VHH)
VHH: QVQLVESGGGLVQAGGSLRLSCAASGIAFSRYTMGWYRQAPGKQRELVADFSREGTTRYADAVKGRFTISRDNAKNTVYLEMNSLKPEDTAVYYCNARRPFLGNLANNWGRGTQVTVSS
B3: binds [2].

B4: 2B-E6 (VHH)
VHH: QVQLVESGGGLVQPGGSLRLSCAASGRTVSSYVMGWYRQAPGKEREFVASVRWTTGLTYVEDSVKGRFTISRDNTKSTVDLQMNSLKPEDTAIYYCNARPLVMLGPTEAGYWGQGTQVTVSS
B4: binds [2].

B5: G10 (VHH)
VHH: QVQLVESGGGLVQPGGSLRLSCAASGGTLDVYTIGWFRQAPGKEREGLSCLSSSDGSTYYADSVKGRFTISRDNAKNTMYLQMNSLKPEDTAVYYCVAGAWTHVQAMCVTCFGCDWGQGTQVTVVS
B5: binds [2].

B6: Nb D10 (VHH)
VHH: QVQLVESGGGLVQPGGSLRLSCAASGFTFNRATMSWYRQAPGKERELVATIGSFGISTNYTDSVKGRFTISRDNAKNTLYLQMNSLKPEDTAVYYCNARYRSTYPWGQGTQVTVSS
notes: alpaca VHH selected against hASIC1a; source: E. coli WK6, periplasm
B6: binds [3].

B7: Nb.C1 (VHH)
VHH: QVQLVESGGGLVQPRGSLRLSCAASGFTFSRAAMSWYRQAPGKEREMVSTIGSFGVSTNYSDSVKGRFTISRDNAKNTVYLHMNSLKPEDTAVYYCNARYRSSYPWGQGTQVTVSS
notes: alpaca VHH selected by phage display against hASIC1a; Expressed from the phagemid pADL-22c; also called Nb.1C; Nb.C1-HA; source: E. coli WK6, periplasm, purified (Ni-NTA); not shown: HA, C-terminal, kept
In the case of B7, the Kd [4] is reported as no more than 0.2 nM, the “stoichiometry N” value [5] is reported as 1 and the binding result [6] is reported as “no binding (tested: 1 nM)”. B7: no binding (tested: 1 nM) [7]; no binding (tested: 1 nM) [8]; no binding (tested: 1 nM) [9]. The koff [10] was no more than 1.4e-05 s⁻¹ and the kon [11] was 68000 to 220000 M⁻¹ s⁻¹.

B8: Nb C4 (VHH)
VHH: QVQLVESGGGLVQPGGSLRLSCAASGFTFSRAAMSWYRQAPGKEREMVATIGSFGISTNYSDSVKGRFTISRDNAKNTVYLHMNSLKPEDTAVYYCNARYRSTYPWGQGTQVTVSS
notes: alpaca VHH selected against hASIC1a; The name is read out of the printed "C1-4-5"; also called C4 (printed within "C1-4-5"); source: E. coli WK6, periplasm
B8: binds [3].

B9: Nb H10 (VHH)
VHH: QVQLVESGGGLVQPGGSLRLTCAASGFTFSRATMSWYRQAPGKERELVATIGSFGVSTNYADSVKGRFTISRDNAKNTAYLYMNNLKPEDTAVYYCNAHYRSTYPWGQGTQVTVSS
notes: as for B6
B9: binds [3].

B10: hASIC1a comprising amino acids 12–478 with a Strep Tag II in the N-terminus (domain or fragment, human, UniProt P78348-2 12-478, looked up)
chain: GVQPVSIQAFASSSTLHGLAHIFSYERLSLKRALWALCFLGSLAVLLCVCTERVQYYFHYHHVTKLDEVAASQLTFPAVTLCNLNEFRFSQVSKNDLYHAGELLALLNNRYEIPDTQMADEKQLEILQDKANFRSFKPKPFNMREFYDRAGHDIRDMLLSCHFRGEVCSAEDFKVVFTRYGKCYTFNSGRDGRPRLKTMKGGTGNGLEIMLDIQQDEYLPVWGETDETSFEAGIKVQIHSQDEPPFIDQLGFGVAPGFQTFVACQEQRLIYLPPPWGTCKAVTMDSDLDFFDSYSITACRIDCETRYLVENCNCRMVHMPGDAPYCTPEQYKECADPALDFLVEKDQEYCVCEMPCNLTRYGKELSMVKIPSKASAKYLAKKFNKSEQYIGENILVLDIFFEVLNYETIEQKKAYEIAGLLGDIGGQMGLFIGASILTVLELFDYAYEVIKHKLCRRGKCQKEAKRS
notes: human acid-sensing ion channel 1a (ASIC1a), residues 12-478 (50 a.a. carboxyl terminal deletion); Trimer in the cryo-EM structure; also called human ASIC1a; recombinant hASIC1a protein; source: HEK293F (FreeStyle 293 F) cells, transfected (pcDNA3.1); crude membranes, solubilised in DDM, purified (Strep Tactin XT, SEC); not shown: Strep Tag II, N-terminal, kept
For B10, the “stoichiometry N” value [12] was 3.

B11: B11 (VHH)
VHH: QLQLVESGGGLVQPGGSLRLSCAASGLTLDNYAIGWFRQVPGKEREDVSCISTSHGSLHYANSVKGRFTISVDAAENTVYLQMNSLNAEDTAVYFCAARGFDSDCSVYGMDFWGKGTPVTVSS
B11: binds [2].

B12: F7 (VHH)
VHH: QVQLVESGGGLVMAGGSLSLSCAASGRLFSTWTMGWFRQAPGKEREFVGAIRRVGDSPSYADSVKGRFTISRDSTKNALYLKMNSLKPEDTAVYYCAAKRFGNEYEYWGQGTQVTVSS
B12: binds [2].

B13: A12-2 (VHH)
VHH: QLQLVESGGGLVMAGGSLSLSCAASGRLFSTWTMGWFRQAPGKEREFVGAIRRVGDSPSYADSVKGRFTISRDSTKNALYLKMNSLKPEDTAVYYCAAKRFGNEYEYWGQGTQVTVSS
B13: binds [2].

B14: G11 (VHH)
VHH: QLQLVESGGGLVMAGGSLSLSCAASGRTFSTWTMAWFRQAPGKEREFVGAIRRIGDSPSYADSVKGRFTISRDNAKNALYLKMNSLKPEDTAVYYCAAKRFGNEYEYWGQGTQVTVSS
B14: binds [2].

B15: H7 (VHH)
VHH: QLQLVESGGGLVQPGGSLRLSCAASGGTIDYYTIGWFRQAPGKEREGVSCIISKADSTKYADTVEGRFTISSDKAKNTVYLQMNSLQPEDTGVYFCAAYRVLIAGRNPGCLLNPPAEYDYWGQGTQVTVSS
B15: binds [2].

B16: 1A-B1 (VHH)
chain: QLQLVESGGGLVQTGESLRLSCVASGIAFSRYIVGWYRQAPGKERELVASVRRNSGTNYVGDLKGGFFISSKNANNTVYQEMNNLKPADDAVYYCSTARPFLGDLPNNCGYWTQVTVSS
B16: binds [2].

B17: G4 (VHH)
VHH: QLQLVESGGGLVQPGGSLRLTCAASGFALDDYTIGWFRQAPGNEREGVACMHGGGIHIADSLKGRITISRDNAKNTVYLQMNSLKPEDTAVYYCAARLATATRWTCKLSDMDYWGKGTLVTVSS
B17: binds [2].
